Target: C-terminally biotinylated γc ectodomain (human) (UniProt P31785)
Assay: site 2 affinity of free super-4 for γc; method not stated

Kd: 300 nM
B1: super-4 (IL-4 RGA), free, not bound to IL-4Rα (ligand)
chain: HKCDITLQEIIKTLNSLTEQKTLCTELTVTDIFAASKNTTEKETFCRAATVLRQFYSHHEKDTRCLGATAQQFHRHKQLIRFLKRLDRNLWGLAGLNSCPVKEANQSTLENFLERLRVIMQSKWFKCGAHHHHHH
